Test results reported in the DeepSol protein solubility set.

experiment: soluble on expression in E. coli; label from the status in PepcDB or PDB records

Row | Sequence | soluble on expression in E. coli
1 | MHHHHHHGKPIPNPLLGLDSTENLYFQGIDPFTEFMDSTDLFDVFEETPVELPTDSNGEKNADTNVGDTPDHTQDKKHGLEEEKEEHEENNSENKKIKSNKSKTEDKNKKVVVPVLADSFEQEASREVDASKGLTNSETLQVEQDGKVRLSHQVRHQVALPPNYDYTPIAEHKRVNEARTYPFTLDPFQDTAISCIDRGESVLVSAHTSAGKTVVAEYAIAQSLKNKQRVIYTSPIKALSNQKYRELLAEFGDVGLMTGDITINPDAGCLVMTTEILRSMLYRGSEVMREVAWVIFDEVHYMRDKERGVVWEETIILLPDKVRYVFLSATIPNAMEFAEWICKIHSQPCHIVYTNFRPTPLQHYLFPAHGDGIYLVVDEKSTFREENFQKAMASISNQIGDDPNSTDSRGKKGQTYKGGSAKGDAKGDIYKIVKMIWKKKYNPVIVFSFSKRDCEELALKMSKLDFNSDDEKEALTKIFNNAIALLPETDRELPQIKHILPLLRRGIGIHHSGLLPILKEVIEILFQEGFLKVLFATETFSIGLNMPAKTVVFTSVRKWDGQQFRWVSGGEYIQMSGRAGRRGLDDRGIVIMMIDEKMEPQVAKGMVKGQADRLDSAFHLGYNMILNLMRVEGISPEFMLEHSFFQFQNVISVPVMEKKLAELKKDFDGIEVEDEENVKEYHEIEQAIKGYREDVRQVVTHPANALSFLQPGRLVEISVNGKDNYGWGAVVDFAKRINKRNPSAVYTDHESYIVNVVVNTMYIDSPVNLLKPFNPTLPEGIRPAEEGEKSICAVIPITLDSIKSIGNLRLYMPKDIRASGQKETVGKSLREVNRRFPDGIPVLDPVKNMKIEDEDFLKLMKKIDVLNTKLSSNPLTNSMRLEELYGKYSRKHDLHEDMKQLKRKISESQAVIQLDDLRRRKRVLRRLGFCTPNDIIELKGRVACEISSGDELLLTELIFNGNFNELKPEQAAALLSCFAFQERCKEAPRLKPELAEPLKAMREIAAKIAKIMKDSKIEVVEKDYVESFRHELMEVVYEWCRGATFTQICKMTDVYEGSLIRMFKRLEELVKELVDVANTIGNSSLKEKMEAVLKLIHRDIVSAGSLYL | soluble
2 | MHHHHHHGSACFAKGTNVLMADGSIECIENIEVGNKVMGKDGRPREVIKLPRGSETMYSVVQKSQHRAHKSDSSREMPELLKFTCNATHELVVRTPRSVRRLSRTIKGVEYFEVITFEMGQKKAPDGRIVELVKEVSKSYPVSEGPERANELVESYRKASNKAYFEWTIEARDLSLLGSHVRKATYQTYAPIGAAFARECRGFYFELQELKEDDYYGITLSDDSDHQFLLANQVVVH | soluble
3 | MHHHHHHGSMGMMSRYEELRKELPAQPKVWLITGVAGFIGSNLLETLLKLDQKVVGLDNFATGHQRNLDEVRSLVSEKQWSNFKFIQGDIRNLDDCNNACAGVDYVLHQAALGSVPRSINDPITSNATNIDGFLNMLIAARDAKVQSFTYAASSSTYGDHPGLPKVEDTIGKPLSPYAVTKYVNELYADVFSRCYGFSTIGLRYFNVFGRRQDPNGAYAAVIPKWTSSMIQGDDVYINGDGETSRDFCYIENTVQANLLAATAGLDARNQVYNIAVGGRTSLNQLFFALRDGLAENGVSYHREPVYRDFREGDVRHSLADISKAAKLLGYAPKYDVSAGVALAMPWYIMFLK | soluble
4 | MHHHHHHLEVLFQGPSSTVTIEYFNQKKEMTKTLEEITRDFEKENPKIKVKVVNVPNAGEVLKTRVLAGDVPDVVNIYPQSIELQEWAKAGVFEDLSNKDYLKRVKNGYAEKYAVNEKVYNVPFTANAYGIYYNKDKFEELGLKVPETWDEFEQLVKDIVAKGQTPFGIAGADAWTLNGYNQLAFATATGGGKEANQYLRYSQPNAIKLSDPIMKDDIKVMDILRINGSKQKNWEGAGYTDVIGAFARGDVLMTPNGSWAITAINEQKPNFKIGTFMIPGKEKGQSLTVGAGDLAWSISATTKHPKEANAFVEYMTRPEVMQKYYDVDGSPTAIEGVKQAGEDSPLAGMTEYAFTDRHLVWLQQYWTSEADFHTLTMNYVLTGDKQGMVNDLNAFFNPMKM | soluble
5 | MHHHHHHMGLELYLDLLSQPCRAVYIFAKKNDIPFELRIVDLIKGQHLSDAFAQVNPLKKVPALKDGDFTLTESVAILLYLTRKYKVPDYWYPQDLQARARVDEYLAWQHTTLRRSCLRALWHKVMFPVFLGEPVSPQTLAATLAELDVTLQLLEDKFLQNKAFLTGPHISLADLVAITELMHPVGAGCQVFEGRPKLATWRQRVEAAVGEDLFQEAHEVILKAKDFPPADPTIKQKLMPWVLAMIR | soluble
6 | MHHHHHHMKHNQLPLVIEFTEQTAPKIFGGEIKTHILLFLPKSVSDYDGKLSNFKTAAESFKGKILFAFIDSDHTDNQRILEFFGLKKEECPAVRLITLEEEMTKYKPESEELTAERITEFCHRFLEGKIKPHLMSQELPEDWDKQP | soluble
7 | MHHHHHHSSGVDLGTENLYFQSMLPHSVLLEIQKELLDYKGVGISVLEMSHRSSDFAKIINNTENLVRELLAVPDNYKVIFLQGGGCGQFSAVPLNLIGLKAGRCADYVVTGAWSAKAAEEAKKFGTINIVHPKLGSYTKIPDPSTWNLNPDASYVYYCANETVHGVEFDFIPDVKGAVLVCDMSSNFLSKPVDVSKFGVIFAGAQKNVGSAGVTVVIVRDDLLGFALRECPSVLEYKVQAGNSSLYNTPPCFSIYVMGLVLEWIKNNGGAAAMEKLSSIKSQTIYEIIDNSQGFYVCPVEPQNRSKMNIPFRIGNAKGDDALEKRFLDKALELNMLSLKGHRSVGGIRASLYNAVTIEDVQKLAAFMKKFLEMHQL | soluble
8 | MHHHHHHSSGVDLGTENLYFQSMPFPEGKVLDDMEGNQWVLGKKIGSGGFGLIYLAFPTNKPEKDARHVVKVEYQENGPLFSELKFYQRVAKKDCIKKWIERKQLDYLGIPLFYGSGLTEFKGRSYRFMVMERLGIDLQKISGQNGTFKKSTVLQLGIRMLDVLEYIHENEYVHGDIKAANLLLGYKNPDQVYLADYGLSYRYCPNGNHKQYQENPRKGHNGTIEFTSLDAHKGVALSRRSDVEILGYCMLRWLCGKLPWEQNLKDPVAVQTAKTNLLDELPQSVLKWAPSGSSCCEIAQFLVCAHSLAYDEKPNYQALKKILNPHGIPLGPLDFSTKGQSINVH | soluble
9 | MHHHHHHSSGVDLGTENLYFQSNAMSHSIEQLSINTIRTLSIDAIEKANSGHPGMPMGAAPMAYTLWTQFMKHNPNNPTWFNRDRFVLSAGHGSMLLYSLLHLSGYDVTMDDLKNFRQWGSKTPGHPEYGHTAGVDATTGPLGQGIATAVGMAMAERHLAAKYNRDAYNIVDHYTYAICGDGDLMEGVSAEASSLAAHLQLGRLVVLYDSNDISLDGDLNRSFSESVEDRYKAYGWQVIRVEDGNDIEAIAKAIEEAKADEKRPTLIEVRTTIGFGSPNKSGKSASHGSPLGVEETKLTKEAYAWTAEQDFHVAEEVYENFRKTVQDVGETAQAEWNTMLGEYAQAYPELANELQAAMNGLLPEGWEQNLPTYELGSKAATRNSSGAVINAIAESVPSFFGGSADLAGSNKTYMNNEKDFTRDDYSGKNIWYGVREFAMGAAMNGIALHGGLKTYGGTFFVFSDYLRPAIRLAALMQLPVTYVFTHDSIAVGEDGPTHEPIEQLAALRAMPNVSVIRPADGNESVAAWRLALESTNKPTALVLTRQDLPTLEGAKDDTYEKVAKGAYVVSASKKETADVILLATGSEVSLAVEAQKALAVDGVDASVVSMPSMDRFEAQTAEYKESVLPKAVTKRFAIEMGATFGWHRYVGLEGDVLGIDTFGASAPGEKIMEEYGFTVENVVRKVKEML | soluble
10 | MHKDIKIVDASAIVKPTGTPYVVYFSSISNNTHRFIEKLEFEHTRIPVNLDEQIEVNQEYVLFCPTYSGGGEYTSGAVPKQVIHFLNNKHNRDLCRGVISSGNTNFGNTFAIAGPILSKKLNVPLLYQFELLGTKNDVEQVQTIITNFFGKAK | soluble
11 | MHLELHQINGNDPLGTIIGERNYQLPIPLPYTMKTVKQIHSGIWHTVIRGYDQYNRPQIATFGKNYDGQLGTGDCENRDTPTPIKLPPEMLTFHAIQTGFFHTIATGLDKNGFPIVASCGYNSDGQLGCGDKDNKNTLIPIKLPENMKSVEMVATGVKHTVIVGKDINNKPVVATCGHNGYGQLGTGDEENRLCLTPIGIPEDITSVDYVGAGAYHTVICGRNIKNQPIITLCGCNSDGELGFAPQKIAKKSSLMTNPAMFFPPRQDKSAINNLMKISKFSPCNLL | not soluble
12 | MHLSPESLEAFVQAVSLGSFSAAARKLGKSQSTVSEAIARLEIDLGLELFDRSGRQPQLTEAGRTLLGRVEEVLGASDRLRRVAALLAGGSEPRVTLALSDTYHSARYEARLAELDERYPELEFECLIAEDQDVIAQVSRGRATLGLLAAQPHYPPELGVAAVAERAEFGLFAAVDHPLAGLERVSERDLSEWRLLRLNTYSETGAAINDGLPSSGGRCWSAPNYLLLLEMATHGFGWAELPRWLVSGYANGRLKELPVSGWPRSQAVDVVWSRQRPLGPAANWLLDRLLDRDLPI | not soluble
13 | MHMLKARNCGWIRLLPLFMLSLPVQAELRCVANAVDIESFFSAATAEDKQQVEQAINSSVNLVPFGLSASNWKVHRGDLVVEGNIESNQKLIVLGNLTVKGNISTFSLSNPWVILGNVTATNIVADSPLLITGSINASGLVFIDSYYDNPSTIKGSINARGIFINDIIAPVVASSTNSEFMVRASDKHDTENVKKALMIINPDAYYWGLINDEDALKEIFKRSNIRMAGNVCNQMKKEALFRPKPSPELVQELQMLDEGKVAAFEGRDIATFDLAVMRTLPRLKGISANLRKQLINSNDEQTIESMARYMPDNEILELTDQQLGYQPVVLGLLDREPLSVEIMTRMSRLPDGVGPLNLALRENLPLDIVMTLAKRDWDMIIQELYKDAWLLPESIIDGYIRSDDSSIRQVGAGGQLTYNQAMQLANDSSNNVVTSLAFKLAEMKHHGQLLRMTPQESDKVAGYLYQKFENDDDLIRVLFLALPDNLQFNFVKRMEKKSPAYFCCRDMQVIHSDAALQRLLTRFNDPEGWSNLAKNQYLSTSMKQKIWQRALSHRKNNPKADSDAYETSADMILSELISHGEVDDQMLLNATALIRSDDWDFLESALISWDNLPAVVLKELQQNTPRNDIWAKFFLRQENSSRAQVDEALRVYYALDPDALAQLDVLAKQPDRIWWSTLAKSNLTFFKFGALNNRHTPPAVLAAEIDPEWWIVAMNNPRFPVDVLKARLKRDPLLALELVNPELDLVRQLALNGKTRAIREQAMRKLDELY | not soluble
14 | MHMQLKGKTALVTGSTAGIGKAIATSLVAEGANVLINGRREENVNETIKEIRAQYPDAILQPVVADLGTEQGCQDVIEKYPKVDILINNLGIFEPVEYFDIPDEDWFKLFEVNIMSGVRLTRSYLKKMIERKEGRVIFIASEAAIMPSQEMAHYSATKTMQLSLSRSLAELTTGTNVTVNTIMPGSTLTEGVETMLNSLYPNEQLTIEEAEKRFMKENRPTSIIQRLIRPEEIAHLVTFLSSPLSSAINGSALRIDGGLVRSVF | not soluble
15 | MHQQIIKFWFEELTPQNWFENNPELDKHIASRFASVLEQAARCELFNWRDSAQGRLAEIIVLDQFSRNVYRNTPKAFAQDPLALALAQEAIRLGHDQELAPEQLSFLYMPFMHSESRLIHVEAEKLFRASGLENNYDFELKHKAIIDQFGRYPHRNAILGRESTPEELAFLQQPGSSF | not soluble
16 | MHRGGQPLKKRRGSFKMAELDQLPDESSSAKALVSLKEGSLSNTWNEKYSSLQKTPVWKGRNTSSAVEMPFRNSKRSRLFSDEDDRQINTRSPKRNQRVAMVPQKFTATMSTPDKKASQKIGFRLRNLLKLPKAHKWCIYEWFYSNIDKPLFEGDNDFCVCLKESFPNLKTRKLTRVEWGKIRRLMGKPRRCSSAFFEEERSALKQKRQKIRLLQQRKVADVSQFKDLPDEIPLPLVIGTKVTARLRGVHDGLFTGQIDAVDTLNATYRVTFDRTGLGTHTIPDYEVLSNEPHETMPIAAFGQKQRPSRFFMTPPRLHYTPPLQSPIIDNDPLLGQSPWRSKISGSDTETLGGFPVEFLIQVTRLSKILMIKKEHIKKLREMNTEAEKLKSYSMPISIEFQRRYATIVLELEQLNKDLNKVLHKVQQYCYELAPDQGLQPADQPTDMRRRCEEEAQEIVRHANSSTGQPCVENENLTDLISRLTAILLQIKCLAEGGDLNSFEFKSLTDSLNDIKSTIDASNISCFQNNVEIHVAHIQSGLSQMGNLHAFAANNTNRD | soluble
